Our source for the Km values is publication PMC8588562, “Layer-by-Layer Encapsulation of Herbicide-Degrading Bacteria for Improved Surface Properties and Compatibility in Soils” (Polymers, 2021).

By Km is commonly meant the substrate concentration at which the rate is half of its maximum.

The data set deals with CCNc1nc(Cl)nc(NC(C)C)n1. Put plainly: cells, lysate or membranes. The note with it: apparent, whole uncoated E. coli cells (free cells), PBS (0.1 M, pH 7.4), room temperature, 20 min, 2.5 mg/mL cells, ATZ 1-20 mg/L.

For “atrazine chlorohydrolase (AtzA) (Pseudomonas sp. ADP)”, the Michaelis constant (Km) came to 89.12 ± 29.48 µM.
